Changes are numbered by the printed parent chain. Numbers in names are those of the source.
T1: Npl4 (wild type, purified without Ufd1) (UniProt P33755 1-580)
T1 sequence (looked up): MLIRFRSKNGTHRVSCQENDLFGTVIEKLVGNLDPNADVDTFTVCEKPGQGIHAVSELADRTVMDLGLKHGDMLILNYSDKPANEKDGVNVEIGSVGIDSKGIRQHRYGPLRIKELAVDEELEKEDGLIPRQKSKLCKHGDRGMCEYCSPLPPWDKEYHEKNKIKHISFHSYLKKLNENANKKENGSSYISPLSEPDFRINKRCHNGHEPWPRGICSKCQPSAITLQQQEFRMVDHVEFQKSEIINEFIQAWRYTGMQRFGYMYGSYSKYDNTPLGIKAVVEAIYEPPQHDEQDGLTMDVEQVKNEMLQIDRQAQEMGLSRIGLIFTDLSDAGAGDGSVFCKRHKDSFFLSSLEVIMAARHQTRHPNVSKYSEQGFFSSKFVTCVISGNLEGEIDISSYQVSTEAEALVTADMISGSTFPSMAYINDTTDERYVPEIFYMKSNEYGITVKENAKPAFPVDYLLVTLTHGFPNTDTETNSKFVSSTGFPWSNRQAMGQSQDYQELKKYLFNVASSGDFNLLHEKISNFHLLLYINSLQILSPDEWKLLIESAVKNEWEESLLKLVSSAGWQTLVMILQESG

T2: Ufd1/Npl4 heterodimer (wild type) (UniProt P53044 1-361; P33755 1-580)
T2 sequence (looked up) 1: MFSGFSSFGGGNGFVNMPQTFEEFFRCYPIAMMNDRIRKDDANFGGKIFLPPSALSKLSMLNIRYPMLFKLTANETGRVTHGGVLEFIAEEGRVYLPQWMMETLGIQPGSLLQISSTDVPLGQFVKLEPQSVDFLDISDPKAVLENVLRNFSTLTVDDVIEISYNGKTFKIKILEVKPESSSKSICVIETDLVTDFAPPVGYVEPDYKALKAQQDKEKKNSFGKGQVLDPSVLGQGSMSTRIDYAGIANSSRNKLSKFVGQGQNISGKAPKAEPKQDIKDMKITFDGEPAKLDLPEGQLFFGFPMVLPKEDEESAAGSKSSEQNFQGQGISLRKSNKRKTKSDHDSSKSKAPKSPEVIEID
T2 sequence (looked up) 2: T1 sequence (looked up)

T3: Ufd1^L55R/Npl4 (UniProt P53044 1-361; P33755 1-580, L55R)
T3 sequence (looked up) 1: T2 sequence (looked up) 1 with L55R
T3 sequence (looked up) 2: T1 sequence (looked up)

B1: Ufd1 (wild type, purified without Npl4) (natural protein, UniProt P53044 1-361, looked up)
chain: T2 sequence (looked up) 1
B2: Ufd1^L55R (purified without Npl4) (natural protein, UniProt P53044 1-361, looked up)
chain: T2 sequence (looked up) 1 with L55R
B3: Cdc48 (enzyme, yeast, UniProt P25694 1-835, looked up)
chain: MGEEHKPLLDASGVDPREEDKTATAILRRKKKDNMLLVDDAINDDNSVIAINSNTMDKLELFRGDTVLVKGKKRKDTVLIVLIDDELEDGACRINRVVRNNLRIRLGDLVTIHPCPDIKYATRISVLPIADTIEGITGNLFDVFLKPYFVEAYRPVRKGDHFVVRGGMRQVEFKVVDVEPEEYAVVAQDTIIHWEGEPINREDEENNMNEVGYDDIGGCRKQMAQIREMVELPLRHPQLFKAIGIKPPRGVLMYGPPGTGKTLMARAVANETGAFFFLINGPEVMSKMAGESESNLRKAFEEAEKNAPAIIFIDEIDSIAPKRDKTNGEVERRVVSQLLTLMDGMKARSNVVVIAATNRPNSIDPALRRFGRFDREVDIGIPDATGRLEVLRIHTKNMKLADDVDLEALAAETHGYVGADIASLCSEAAMQQIREKMDLIDLDEDEIDAEVLDSLGVTMDNFRFALGNSNPSALRETVVESVNVTWDDVGGLDEIKEELKETVEYPVLHPDQYTKFGLSPSKGVLFYGPPGTGKTLLAKAVATEVSANFISVKGPELLSMWYGESESNIRDIFDKARAAAPTVVFLDELDSIAKARGGSLGDAGGASDRVVNQLLTEMDGMNAKKNVFVIGATNRPDQIDPAILRPGRLDQLIYVPLPDENARLSILNAQLRKTPLEPGLELTAIAKATQGFSGADLLYIVQRAAKYAIKDSIEAHRQHEAEKEVKVEGEDVEMTDEGAKAEQEPEVDPVPYITKEHFAEAMKTAKRSVSDAELRRYEAYSQQMKASRGQFSNFNFNDAPLGTTATDNANSNNSAPSGAGAAFGSNAEEDDDLYS

How the values were obtained:
[1] = molecular target: T1, Npl4 (wild type, purified without Ufd1); assay: SEC
[2] = molecular target: T2, Ufd1/Npl4 heterodimer (wild type); assay: ATPase activity titration
Ufd1^L55R/Npl4 = molecular target: T3, Ufd1^L55R/Npl4; assay: ATPase activity titration

Binder | binding result [1] | Kd [2] | Kd (Ufd1^L55R/Npl4)
B1 | binds | – | –
B2 | binds | – | –
B3 | – | 1000 nM | 500 nM
